Paper PMC8727931

B1: His-tagged GABARAP [not stated] / GST-FAM134B [not stated] (parent)
chain 1: MKFVYKEEHPFEKRRSEGEKIRKKYPDRVPVIVEKAPKARIGDLDKKKYLVPSDLTVGQFYFLIRKRIHLRAEDALFFFVNNVIPPTSATMGQLYQEHHEEDFFLYIAYSDESVYGL
chain 2: EGDDFELLDQSELDQIESELGLTQDQ

Variants of: B1
Assay: competitive GST pull-down (gel band quantification)
Conditions: with GST-FAM134B; competition with MBP-LC3A H27Y in the same reaction; n = 3; read off a plot

Row | Variant | ratio to parent
1 | chain 1 Y25H | 0.89

Same assay, conditions: with GST-FAM134B; competition with MBP-LC3A H57D in the same reaction; n = 3; read off a plot

Row | Variant | ratio to parent
2 | chain 1 D54H | 1.05

Same assay, conditions: with GST-FAM134B; competition with MBP-LC3A K30R in the same reaction; n = 3; read off a plot

Row | Variant | ratio to parent
3 | chain 1 R28K | 0.87

Same assay, conditions: with GST-FAM134B; competition with MBP-LC3A K65F in the same reaction; n = 3; read off a plot

Row | Variant | ratio to parent
4 | chain 1 F62K | 1.05
